T1: steroid receptor RNA activator 1 (human, UniProt Q9HD15 1-224)
T1 construct: also called SRA1; cbe_4344185
T1 sequence: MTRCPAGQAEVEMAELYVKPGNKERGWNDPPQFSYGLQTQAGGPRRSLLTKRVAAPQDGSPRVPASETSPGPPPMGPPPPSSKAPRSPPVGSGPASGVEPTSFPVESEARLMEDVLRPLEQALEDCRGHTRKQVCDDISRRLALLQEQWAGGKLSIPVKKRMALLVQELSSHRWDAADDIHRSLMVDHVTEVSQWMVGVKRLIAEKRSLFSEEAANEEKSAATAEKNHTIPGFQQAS

T2: SCO1 (human, UniProt O75880 68-301)
T2 construct: also called cbe_1699351
T2 sequence: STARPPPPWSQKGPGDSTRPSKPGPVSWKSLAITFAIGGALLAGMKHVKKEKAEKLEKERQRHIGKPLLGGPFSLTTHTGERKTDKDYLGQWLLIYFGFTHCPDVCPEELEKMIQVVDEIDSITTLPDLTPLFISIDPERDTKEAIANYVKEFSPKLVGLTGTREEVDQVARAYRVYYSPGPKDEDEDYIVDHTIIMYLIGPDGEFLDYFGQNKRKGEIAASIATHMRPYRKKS

T3: KRT8 (human, UniProt P05787 1-483)
T3 construct: also called cbe_4269571
T3 sequence: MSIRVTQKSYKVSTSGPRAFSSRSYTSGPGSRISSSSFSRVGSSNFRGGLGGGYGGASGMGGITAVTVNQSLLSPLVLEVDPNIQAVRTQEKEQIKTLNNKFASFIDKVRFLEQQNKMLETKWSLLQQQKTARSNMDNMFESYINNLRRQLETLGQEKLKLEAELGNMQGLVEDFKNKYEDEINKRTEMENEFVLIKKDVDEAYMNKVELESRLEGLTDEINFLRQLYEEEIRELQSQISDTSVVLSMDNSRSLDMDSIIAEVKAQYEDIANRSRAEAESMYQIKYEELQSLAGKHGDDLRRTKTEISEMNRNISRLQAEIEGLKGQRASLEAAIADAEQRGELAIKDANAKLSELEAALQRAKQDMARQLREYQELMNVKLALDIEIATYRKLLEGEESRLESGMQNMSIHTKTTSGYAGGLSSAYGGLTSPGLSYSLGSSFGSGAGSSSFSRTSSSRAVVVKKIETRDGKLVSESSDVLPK

T4: rho/rac guanine nucleotide exchange factor (GEF) 2 (human, UniProt Q92974 28-986)
T4 construct: also called ARHGEF2; cbe_3694420
T4 sequence: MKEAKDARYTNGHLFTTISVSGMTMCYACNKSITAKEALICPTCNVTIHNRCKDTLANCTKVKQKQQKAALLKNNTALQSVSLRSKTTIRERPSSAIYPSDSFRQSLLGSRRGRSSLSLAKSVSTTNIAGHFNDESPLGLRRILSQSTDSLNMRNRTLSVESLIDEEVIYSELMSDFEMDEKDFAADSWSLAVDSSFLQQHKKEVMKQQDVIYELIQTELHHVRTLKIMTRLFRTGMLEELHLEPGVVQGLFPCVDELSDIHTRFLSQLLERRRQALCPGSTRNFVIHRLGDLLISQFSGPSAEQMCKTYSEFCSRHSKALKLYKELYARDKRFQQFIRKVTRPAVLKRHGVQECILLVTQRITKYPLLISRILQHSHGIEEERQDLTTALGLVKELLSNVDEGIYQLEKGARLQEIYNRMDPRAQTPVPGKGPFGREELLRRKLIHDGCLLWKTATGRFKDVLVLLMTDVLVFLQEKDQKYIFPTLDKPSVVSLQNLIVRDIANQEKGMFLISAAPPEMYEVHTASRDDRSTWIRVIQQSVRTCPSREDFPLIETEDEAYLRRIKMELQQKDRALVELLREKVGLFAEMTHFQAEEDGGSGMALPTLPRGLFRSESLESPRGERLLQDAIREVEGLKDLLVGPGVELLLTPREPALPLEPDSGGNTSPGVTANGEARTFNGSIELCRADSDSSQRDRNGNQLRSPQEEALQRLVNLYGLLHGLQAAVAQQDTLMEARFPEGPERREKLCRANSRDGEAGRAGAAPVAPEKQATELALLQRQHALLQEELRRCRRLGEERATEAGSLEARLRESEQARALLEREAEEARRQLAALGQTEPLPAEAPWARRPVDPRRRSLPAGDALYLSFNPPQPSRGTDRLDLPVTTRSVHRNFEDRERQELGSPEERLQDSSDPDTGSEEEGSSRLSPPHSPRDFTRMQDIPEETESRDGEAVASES

B1: hypothetical gene supported by AL449243 (other)
chain: MASGAARWLVLAPVRSGALRSGPSLRKDGDVSAAWSGSGRSLVPSGSVIVTRSGAILPKPVKMSFGLLRVFSIVIPFLYVGTLISKNFAALLEEHDIFVPEDDDDDD
notes: also called Hs.306083; LOC91689
B2: Human papillomavirus 11 E4 (other)
chain: MVVPIIGKYVMAAQLYVLLHLYLALYEKYPLLNLLHTPPHRPPPLQCPPAPRKTACRRRLGSEHVDRPLTTPCVWPTSDPWTVQSTTSSLTITTSTKEGTTVTVQLRL
notes: also called HPV 11 E4; cbe_250777
B3: Human papillomavirus 11 E2 (other)
chain: MEAIAKRLDACQDQLLELYEENSIDIHKHIMHWKCIRLESVLLHKAKQMGLSHIGLQVVPPLTVSETKGHNAIEMQMHLESLAKTQYGVEPWTLQDTSYEMWLTPPKRCFKKQGNTVEVKFDGCEDNVMEYVVWTHIYLQDNDSWVKVTSSVDAKGIYYTCGQFKTYYVNFNKEAQKYGSTNHWEVCYGSTVICSPASVSSTVREVSIAEPTTYTPAQTTAPTVSACTTEDGVSAPPRKRARGPSTNNTLCVANIRSVDSTINNIVTDNYNKHQRRNNCHSAATPIVQLQGDSNCLKCFRYRLNDKYKHLFELASSTWHWASPEAPHKNAIVTLTYSSEEQRQQFLNSVKIPPTIRHKVGFMSLHLL
notes: also called HPV 11 E2; cbe_250781
B4: Human papillomavirus 11 E6 (other)
chain: MESKDASTSATSIDQLCKTFNLSLHTLQIQCVFCRNALTTAEIYAYAYKNLKVVWRDNFPFAACACCLELQGKINQYRHFNYAAYAPTVEEETNEDILKVLIRCYLCHKPLCEIEKLKHILGKARFIKLNNQWKGRCLHCWTTCMEDLLP
notes: also called HPV 11 E6; cbe_250808

Test [1] concerns the target B3. Nature of the test: Y2H; INT ID 14.
For test [2], the target named is T1, steroid receptor RNA activator 1. Nature of the test: Y2H; INT ID 7.
The target in the next test is T2, SCO1. Description: Y2H; INT ID 6.
The target in a further test is T5, MT2A (human, UniProt P02795 1-61).
T5 construct: also called cbe_862174
Description: Y2H; INT ID 5.

Another test addresses T3, KRT8. Description: Y2H; INT ID 16.
For another test, the target named is T6, nucleoporin 214 kDa (human, UniProt P35658 2-2090).
T6 construct: also called NUP214; cbe_3590661
Description: Y2H; INT ID 29.

A further test deals with T7, GPRK5 (human, UniProt P34947 1-590).
T7 construct: also called cbe_2541164
Description: Y2H; INT ID 27.

A further test deals with T8, MAPK9 (human, UniProt P45984 1-424).
T8 construct: also called cbe_4175362
Nature of the test: Y2H; INT ID 32.

For a further test, the target named is T9, CD164 (human, UniProt Q04900 24-197).
T9 construct: also called cbe_3929669
Nature of the test: Y2H; INT ID 31.

The target of test [3] is T4, rho/rac guanine nucleotide exchange …. Nature of the test: Y2H; INT ID 30.

These results are taken from patent US20050100554A1 (published 2005).

T7 sequence (P34947 whole entry): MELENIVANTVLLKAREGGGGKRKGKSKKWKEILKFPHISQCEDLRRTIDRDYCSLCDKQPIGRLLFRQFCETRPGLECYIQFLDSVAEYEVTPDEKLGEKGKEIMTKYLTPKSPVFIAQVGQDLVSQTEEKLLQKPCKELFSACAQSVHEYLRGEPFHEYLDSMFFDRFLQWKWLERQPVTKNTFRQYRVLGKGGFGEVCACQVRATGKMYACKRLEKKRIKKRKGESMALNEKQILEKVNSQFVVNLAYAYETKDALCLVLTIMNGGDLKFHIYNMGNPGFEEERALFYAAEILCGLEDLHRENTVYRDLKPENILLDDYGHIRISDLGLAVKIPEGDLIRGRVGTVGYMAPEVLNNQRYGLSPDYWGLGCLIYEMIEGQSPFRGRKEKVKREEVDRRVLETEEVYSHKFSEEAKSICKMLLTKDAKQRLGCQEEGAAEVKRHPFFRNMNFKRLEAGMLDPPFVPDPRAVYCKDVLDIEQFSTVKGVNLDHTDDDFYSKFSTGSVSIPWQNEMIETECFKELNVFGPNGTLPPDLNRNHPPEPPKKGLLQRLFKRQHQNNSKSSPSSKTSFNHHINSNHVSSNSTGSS
T5 sequence (P02795 whole entry): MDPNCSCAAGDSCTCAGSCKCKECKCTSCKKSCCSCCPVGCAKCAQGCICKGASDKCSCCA
T9 sequence (Q04900 24-197 limits assumed): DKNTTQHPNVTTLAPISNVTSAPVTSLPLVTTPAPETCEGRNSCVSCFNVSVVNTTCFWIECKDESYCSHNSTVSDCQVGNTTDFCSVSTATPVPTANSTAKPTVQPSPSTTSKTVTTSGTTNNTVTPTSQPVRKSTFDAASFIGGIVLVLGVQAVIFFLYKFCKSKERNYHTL
T6 sequence (P35658 2-2090 limits assumed): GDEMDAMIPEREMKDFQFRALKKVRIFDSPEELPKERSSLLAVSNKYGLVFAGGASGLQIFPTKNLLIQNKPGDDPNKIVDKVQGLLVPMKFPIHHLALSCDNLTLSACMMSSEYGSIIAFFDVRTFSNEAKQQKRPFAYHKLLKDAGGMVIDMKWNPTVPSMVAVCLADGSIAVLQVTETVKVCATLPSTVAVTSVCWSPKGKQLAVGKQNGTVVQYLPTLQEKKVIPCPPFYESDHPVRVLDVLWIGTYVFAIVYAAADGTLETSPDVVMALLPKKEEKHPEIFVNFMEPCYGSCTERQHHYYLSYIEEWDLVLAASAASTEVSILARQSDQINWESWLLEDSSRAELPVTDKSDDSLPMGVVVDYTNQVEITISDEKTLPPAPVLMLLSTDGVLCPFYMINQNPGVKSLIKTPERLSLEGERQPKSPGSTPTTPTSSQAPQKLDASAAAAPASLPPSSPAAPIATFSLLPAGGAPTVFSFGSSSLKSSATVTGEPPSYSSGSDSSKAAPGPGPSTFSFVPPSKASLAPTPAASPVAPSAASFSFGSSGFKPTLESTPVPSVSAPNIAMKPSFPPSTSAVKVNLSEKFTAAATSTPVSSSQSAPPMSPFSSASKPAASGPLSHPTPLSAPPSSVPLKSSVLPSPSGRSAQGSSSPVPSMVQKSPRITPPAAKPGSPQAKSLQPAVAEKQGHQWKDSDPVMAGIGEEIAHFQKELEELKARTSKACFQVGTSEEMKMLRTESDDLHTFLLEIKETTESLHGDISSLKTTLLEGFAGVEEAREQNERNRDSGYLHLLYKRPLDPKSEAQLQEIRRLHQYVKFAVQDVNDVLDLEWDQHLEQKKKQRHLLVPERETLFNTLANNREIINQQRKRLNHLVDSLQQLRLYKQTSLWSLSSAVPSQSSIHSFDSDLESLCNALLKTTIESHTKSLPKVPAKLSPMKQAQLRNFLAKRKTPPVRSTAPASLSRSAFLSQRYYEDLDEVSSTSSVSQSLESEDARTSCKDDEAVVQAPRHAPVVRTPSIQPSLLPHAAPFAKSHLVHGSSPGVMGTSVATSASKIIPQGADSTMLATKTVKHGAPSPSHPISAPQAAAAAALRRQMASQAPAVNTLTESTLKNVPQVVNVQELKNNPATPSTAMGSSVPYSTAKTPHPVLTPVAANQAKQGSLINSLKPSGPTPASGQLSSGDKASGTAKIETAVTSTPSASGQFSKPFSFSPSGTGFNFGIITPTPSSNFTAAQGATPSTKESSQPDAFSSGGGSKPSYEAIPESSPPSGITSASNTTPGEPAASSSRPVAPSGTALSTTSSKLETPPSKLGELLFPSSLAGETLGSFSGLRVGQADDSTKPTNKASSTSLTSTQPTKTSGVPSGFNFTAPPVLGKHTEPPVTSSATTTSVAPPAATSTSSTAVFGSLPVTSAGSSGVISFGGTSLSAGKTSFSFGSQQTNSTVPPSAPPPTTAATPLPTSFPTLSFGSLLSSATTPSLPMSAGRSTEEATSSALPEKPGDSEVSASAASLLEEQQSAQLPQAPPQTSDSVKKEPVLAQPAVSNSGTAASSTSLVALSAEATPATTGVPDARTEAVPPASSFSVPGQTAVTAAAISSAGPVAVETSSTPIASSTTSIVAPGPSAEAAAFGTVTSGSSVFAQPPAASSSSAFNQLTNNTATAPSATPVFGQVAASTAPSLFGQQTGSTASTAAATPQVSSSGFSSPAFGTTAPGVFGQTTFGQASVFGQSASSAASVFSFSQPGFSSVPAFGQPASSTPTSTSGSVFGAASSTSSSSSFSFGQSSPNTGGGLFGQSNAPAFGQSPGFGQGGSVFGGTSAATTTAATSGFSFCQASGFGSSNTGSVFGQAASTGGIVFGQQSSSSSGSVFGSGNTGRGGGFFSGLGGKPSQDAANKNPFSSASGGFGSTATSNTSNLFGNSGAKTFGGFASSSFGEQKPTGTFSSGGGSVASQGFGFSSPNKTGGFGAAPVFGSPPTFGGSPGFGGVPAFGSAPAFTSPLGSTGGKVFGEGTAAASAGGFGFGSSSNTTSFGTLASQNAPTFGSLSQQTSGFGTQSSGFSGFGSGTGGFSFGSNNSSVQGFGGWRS

Take B1: in test [1], the binding result is “binds”.

With B2, the binding result (in test [2]; with SCO1; with MT2A) was “binds” each time.

Consider B3, for which, in the test with KRT8, the binding result is reported as “binds”.

B4: the binding result (in the test with nucleoporin 214 kDa; in the test with GPRK5; in the test with MAPK9; with CD164; in [3]) was “binds” throughout.
